Drawing on the Immune Epitope Database (IEDB), this text covers Kd for 32 sequences.

For one assay, the target named is HLA-A*02:02. The experiment in a line: IEDB peptide-MHC binding, purified MHC/competitive/radioactivity; filed as Kd, often an IC50 or EC50 that approximates it; ≥ and ≤ were set here for values at or beyond the usual limits of such assays.
The target in the next assay is HLA-A*02:03. Described as above.
The target of a further assay is HLA-A*02:06. The description is as above.
In another assay the target is HLA-B*58:01. The experiment in a line: IEDB peptide-MHC binding, purified MHC/direct/fluorescence; filed as Kd, often an IC50 or EC50 that approximates it; ≥ and ≤ were set here for values at or beyond the usual limits of such assays.
A further assay has as its target HLA-A*69:01. Described as above.
A further assay has as its target HLA-A*02:01. The assay is described as above. Particulars: source organism: Salmonella enterica subsp. enterica serovar Typhimurium.
For the next assay, the target named is HLA-B*15:01. The description is as above.
Another assay deals with HLA-A*24:02. Kind of assay: IEDB peptide-MHC binding, purified MHC/competitive/radioactivity; filed as Kd, often an IC50 or EC50 that approximates it; ≥ and ≤ were set here for values at or beyond the usual limits of such assays. The following applies: source organism: Homo sapiens.
The mark [1] stands for this setting: source organism: Vaccinia virus WR.
Setting [2] is: source organism: Salmonella enterica subsp. enterica serovar Typhimurium.
Where [3] appears, read: source organism: SARS coronavirus Tor2.
Where [4] appears, read: source organism: Rickettsia conorii.

The Kd is the constant that tells how readily two partners part at equilibrium. Turning to SMTSDSKSI, the Kd with HLA-A*02:02 (setting [1]) is 8350 nM; with HLA-A*02:03 (setting [1]), 2300 nM; with HLA-A*02:06 (setting [1]) it was at least 55800 nM.
SVGTGILFM: the Kd is 1090 nM with HLA-A*02:02 (setting [1]), 2250 nM with HLA-A*02:03 (setting [1]) and at least 20700 nM with HLA-A*02:06 (setting [1]).
In the assay with HLA-B*58:01 (source organism: Influenza A virus (A/Istanbul/CTF/10/2004(H3N2))), RLVDSIVSW displayed a Kd of 49.1 nM.
For the sequence SMYVIPDELI, the Kd with HLA-A*02:02 (setting [1]) came out at 30.7 nM; with HLA-A*02:03 (setting [1]) it was 114 nM; with HLA-A*02:06 (setting [1]), 492 nM.
The matching figures for HLMSDNPKA: 56.9 nM, 279 nM and 523 nM.
On to ELLSHVGQA, for which the Kd in the assay with HLA-A*69:01 (setting [2]) is 63.1 nM; with HLA-A*02:01, 3590 nM.
In the case of RVTTELNIV, the Kd with HLA-A*02:02 (setting [1]) came to 2460 nM; with HLA-A*02:03 (setting [1]), 116 nM; in the assay with HLA-A*02:06 (setting [1]) it was 45.7 nM.
The like results for VQTLISLNSM were, in that order, 1560 nM, 5820 nM and 853 nM.
The like results for FISYNRHNDT were, in that order, 6840 nM, 4930 nM and 11300 nM.
The like results for SIRCVKYLL were, in that order, 107 nM, 55.7 nM and 2880 nM.
For the sequence SLKRFTHTTA, the dissociation constant (Kd) in the assay with HLA-A*02:02 (setting [1]) turned out to be 884 nM; in the assay with HLA-A*02:03 (setting [1]), 726 nM; with HLA-A*02:06 (setting [1]), 7320 nM.
The like results for IINSVSIIL were, in that order, 705 nM, 2900 nM and at least 25900 nM.
Consider FLLFLVLIML, for which the Kd in the assay with HLA-A*02:02 (setting [3]) came to 1570 nM; in the assay with HLA-A*02:03 (setting [3]), 1380 nM; in the assay with HLA-A*02:06 (setting [3]) it was 2920 nM.
Turning to FIISTLNKI, the Kd amounted to 1.65 nM in the assay with HLA-A*02:02 (setting [1]), 0.418 nM with HLA-A*02:03 (setting [1]) and 5.84 nM with HLA-A*02:06 (setting [1]).
For the sequence IIMFDAEKL, the equilibrium dissociation constant (Kd) stood at 3350 nM with HLA-B*15:01 (setting [4]) and 1110 nM with HLA-A*69:01 (setting [4]).
Take AFLPWHRLF: in the assay with HLA-A*24:02, the Kd came out at 20 nM.
Regarding VQSVLRDISI, the Kd with HLA-A*02:02 (setting [1]) came out at 77.9 nM; in the assay with HLA-A*02:03 (setting [1]), 541 nM; with HLA-A*02:06 (setting [1]), 132 nM.
Consider LLLEWLAEVV, for which the values for the Kd with HLA-A*02:02 (setting [3]), with HLA-A*02:03 (setting [3]) and with HLA-A*02:06 (setting [3]) were 0.31 nM, 0.813 nM and 0.525 nM, respectively.
Take GTSVIRSNI: the Kd was determined as 386 nM with HLA-A*02:02 (setting [1]), 44.8 nM with HLA-A*02:03 (setting [1]) and 1610 nM with HLA-A*02:06 (setting [1]).
The matching figures for DLDKVYEIL: 19600 nM, at least 26300 nM and at least 53700 nM.
FASADNHPKM: the Kd with HLA-A*02:02 (setting [1]) was at least 70000 nM; in the assay with HLA-A*02:03 (setting [1]), at least 47400 nM; with HLA-A*02:06 (setting [1]), at least 69800 nM.
With LLLENKSLTI, the Kd in the assay with HLA-A*02:02 (setting [1]) was 982 nM; with HLA-A*02:03 (setting [1]), 985 nM; with HLA-A*02:06 (setting [1]) it was 1320 nM.
For the sequence ELTNKKYRCM, the figures for the dissociation constant (Kd) with HLA-A*02:02 (setting [1]), with HLA-A*02:03 (setting [1]) and with HLA-A*02:06 (setting [1]) were at least 70000 nM, at least 70400 nM and at least 69800 nM, respectively.
The matching figures for FTEGKINPLL: 150 nM, 595 nM and 85.8 nM.
In the case of SSVSSFERF, the Kd with HLA-B*58:01 (source organism: Influenza A virus (A/camel/Mongolia/1982(H1N1))) stood at 72.5 nM.
IIAVFDSKL: the Kd with HLA-A*02:02 (setting [1]) was 44 nM; in the assay with HLA-A*02:03 (setting [1]), 107 nM; with HLA-A*02:06 (setting [1]) it was 98.6 nM.
As for KTIISEEYL, the Kd with HLA-A*02:02 (setting [1]) stood at 916 nM; in the assay with HLA-A*02:03 (setting [1]) it was 1220 nM; with HLA-A*02:06 (setting [1]), 150 nM.
Consider ATICLKNEGV, for which the results for the Kd with HLA-A*02:02 (setting [1]), in the assay with HLA-A*02:03 (setting [1]) and in the assay with HLA-A*02:06 (setting [1]) were 436 nM, 70.9 nM and 42.5 nM, respectively.
IQRDQVTDY returned a Kd with HLA-B*15:01 (setting [2]) of 239 nM.
As to NVTYNIKPV, the Kd with HLA-A*02:02 (setting [1]) is at least 22800 nM; in the assay with HLA-A*02:03 (setting [1]), 153 nM; with HLA-A*02:06 (setting [1]) it was 855 nM.
As for EIKAEMQLKI, the Kd turned out to be 16900 nM with HLA-A*02:02 (setting [1]), 4760 nM with HLA-A*02:03 (setting [1]) and 14300 nM with HLA-A*02:06 (setting [1]).
In the case of FISPASISSV, the Kd is 3.01 nM with HLA-A*02:02 (setting [1]), 0.111 nM with HLA-A*02:03 (setting [1]) and 2.02 nM in the assay with HLA-A*02:06 (setting [1]).
